# In the supplement of paper PMC9732359:
# ± gives the uncertainty stated by the source.
# Test: protein stability index of a GFP-peptide fusion (yeast GPS) (PSI 1-4); higher = more stable; sorted into four equal gates, so the index is relative within each strain
# Summary of the method: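 Sequencing reads from sorted gates were used to score each peptide. The library consisted of tiled 17-residue yeast protein peptides fused downstream of GFP on a Cherry-expressing plasmid, pooled and carried in yeast. Mid-log cultures in leucine-free medium were split into four equal gates by GFP/Cherry ratio, and each gate's plasmids were PCR-amplified and Illumina-sequenced. The protein stability index adds up, over all gates, the read frequency multiplied by the gate number.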
sequence,measurement,setting,value
KGKARLGTLVNQKTSAV [RPL8A],protein stability index,doa10∆,2.65 ± 0.078
same,protein stability index,pdr5∆,2.38 ± 0.076
same,protein stability index,san1∆,3.15 ± 0.083
same,protein stability index,ubr1∆,2.94 ± 0.057
KGSRQCRVCSSHTGLIR [RPS29A],protein stability index,doa10∆,2.73 ± 0.06
same,protein stability index,pdr5∆,2.93 ± 0.049
same,protein stability index,san1∆,2.62 ± 0.055
same,protein stability index,ubr1∆,2.9 ± 0.043
KGSRQCRVCSSHTGLVR [RPS29B],protein stability index,doa10∆,2.67 ± 0.065
same,protein stability index,pdr5∆,2.79 ± 0.051
same,protein stability index,san1∆,2.66 ± 0.056
same,protein stability index,ubr1∆,2.61 ± 0.03
KGVLLYGPPGTGKTLLA [RPT4],protein stability index,doa10∆,2.51 ± 0.045
same,protein stability index,pdr5∆,2.58 ± 0.041
same,protein stability index,san1∆,2.57 ± 0.048
same,protein stability index,ubr1∆,2.29 ± 0.035
KGYLQRGDDGESYAYLA [CDC53],protein stability index,doa10∆,3.17 ± 0.057
same,protein stability index,pdr5∆,3.17 ± 0.055
same,protein stability index,san1∆,3.21 ± 0.033
same,protein stability index,ubr1∆,3.25 ± 0.044
KHGAVHLSTYLKVYKVG [RPL21A],protein stability index,doa10∆,1.76 ± 0.07
same,protein stability index,pdr5∆,1.69 ± 0.077
same,protein stability index,san1∆,1.27 ± 0.2
same,protein stability index,ubr1∆,3.02 ± 0.065
KIAKRRQVYKPVLDNPF [POP3],protein stability index,doa10∆,1.92 ± 0.077
same,protein stability index,pdr5∆,2.33 ± 0.082
same,protein stability index,san1∆,1.99 ± 0.11
same,protein stability index,ubr1∆,2.08 ± 0.066
KIALGSPIVNVLEDVYR [RRI2],protein stability index,doa10∆,2.17 ± 0.15
same,protein stability index,pdr5∆,2.96 ± 0.15
same,protein stability index,san1∆,2.31 ± 0.15
same,protein stability index,ubr1∆,2.77 ± 0.098
KIEGVATPQEAQFYLGK [RPL33B],protein stability index,doa10∆,2.87 ± 0.083
same,protein stability index,pdr5∆,3.03 ± 0.098
same,protein stability index,san1∆,2.91 ± 0.091
same,protein stability index,ubr1∆,3 ± 0.072
KIESEDDYILSGESVMD [SRB4],protein stability index,doa10∆,3.4 ± 0.17
same,protein stability index,pdr5∆,3.5 ± 0.1
same,protein stability index,san1∆,3.38 ± 0.15
same,protein stability index,ubr1∆,2.96 ± 0.075
KIINTHSDMASKMYNTD [PRP8],protein stability index,doa10∆,2.72 ± 0.049
same,protein stability index,pdr5∆,2.76 ± 0.052
same,protein stability index,san1∆,2.77 ± 0.05
same,protein stability index,ubr1∆,2.28 ± 0.029
KIIPKDISATQLPKQLW [ITC1],protein stability index,doa10∆,2.22 ± 0.11
same,protein stability index,pdr5∆,2.43 ± 0.14
same,protein stability index,san1∆,2.45 ± 0.12
same,protein stability index,ubr1∆,2.32 ± 0.13
KIKAILESVGIEIEDEK [RPP2A],protein stability index,doa10∆,2.75 ± 0.084
same,protein stability index,pdr5∆,3.3 ± 0.11
same,protein stability index,san1∆,2.8 ± 0.11
same,protein stability index,ubr1∆,2.99 ± 0.13
KIMQEATQSGGVRPFGV [PRE8],protein stability index,pdr5∆,2.45 ± 0.29
same,protein stability index,ubr1∆,2.95 ± 0.1
KINQERLERRINLTKVT [CSI1],protein stability index,doa10∆,1.91 ± 0.062
same,protein stability index,pdr5∆,1.96 ± 0.062
same,protein stability index,san1∆,1.4 ± 0.095
same,protein stability index,ubr1∆,1.37 ± 0.045
KIPILAQHESFLRQKIC [RPN9],protein stability index,doa10∆,1.72 ± 0.046
same,protein stability index,pdr5∆,2.06 ± 0.055
same,protein stability index,san1∆,1.85 ± 0.076
same,protein stability index,ubr1∆,2.14 ± 0.038
KIQVVDRHIGCVYSGLI [PRE10],protein stability index,doa10∆,1.28 ± 0.12
same,protein stability index,pdr5∆,1.7 ± 0.29
same,protein stability index,ubr1∆,1.36 ± 0.14
KIRARSITLQGDVYDPE [SMC2],protein stability index,doa10∆,2.07 ± 0.065
same,protein stability index,pdr5∆,2.19 ± 0.059
same,protein stability index,san1∆,1.79 ± 0.16
same,protein stability index,ubr1∆,1.86 ± 0.067
KISNSEFFNPEIFHLLQ [SIN4],protein stability index,doa10∆,2.13 ± 0.079
same,protein stability index,pdr5∆,1.74 ± 0.072
same,protein stability index,san1∆,1.61 ± 0.087
same,protein stability index,ubr1∆,2.16 ± 0.07
KITAKTQHEEEEEQDTG [IRR1],protein stability index,doa10∆,2.69 ± 0.11
same,protein stability index,pdr5∆,3.16 ± 0.13
same,protein stability index,san1∆,2.82 ± 0.22
KIYKLENGERKLYDAKR [YMR129W/POM152],protein stability index,doa10∆,3.13 ± 0.06
same,protein stability index,pdr5∆,3.17 ± 0.077
same,protein stability index,san1∆,3.21 ± 0.065
same,protein stability index,ubr1∆,3.29 ± 0.06
KKAVVKGTNGKKALKVR [RPL25],protein stability index,doa10∆,2.84 ± 0.094
same,protein stability index,pdr5∆,2.24 ± 0.078
same,protein stability index,san1∆,1.91 ± 0.11
same,protein stability index,ubr1∆,2.75 ± 0.063
KKCIDFFEMLISKSLTF [RRI2],protein stability index,doa10∆,2.13 ± 0.055
same,protein stability index,pdr5∆,2.13 ± 0.041
same,protein stability index,san1∆,1.96 ± 0.061
same,protein stability index,ubr1∆,2.27 ± 0.038
KKDIKIGTNDLFQVESA [SIR4],protein stability index,doa10∆,2.62 ± 0.082
same,protein stability index,pdr5∆,3.22 ± 0.066
same,protein stability index,san1∆,2.88 ± 0.07
same,protein stability index,ubr1∆,2.33 ± 0.054
KKDQSVLKSHSNDFEEG [YMR129W/POM152],protein stability index,doa10∆,2.59 ± 0.087
same,protein stability index,pdr5∆,2.99 ± 0.12
same,protein stability index,san1∆,3.07 ± 0.071
same,protein stability index,ubr1∆,2.95 ± 0.073
KKENLTRDETVSLIKKY [YML103C/NUP188],protein stability index,doa10∆,2.82 ± 0.065
same,protein stability index,pdr5∆,2.83 ± 0.1
same,protein stability index,san1∆,2.55 ± 0.096
same,protein stability index,ubr1∆,2.6 ± 0.078
KKFNMGKEFEARNLIED [RPC53],protein stability index,doa10∆,2.81 ± 0.11
same,protein stability index,pdr5∆,2.72 ± 0.087
same,protein stability index,san1∆,3.04 ± 0.083
same,protein stability index,ubr1∆,2.56 ± 0.14
KKIGCYMFANLEFSIYH [CSN12],protein stability index,doa10∆,2.07 ± 0.071
same,protein stability index,pdr5∆,1.95 ± 0.064
same,protein stability index,san1∆,2.98 ± 0.06
same,protein stability index,ubr1∆,2.51 ± 0.052
KKISRLPKFLTVQYVRF [UBP6],protein stability index,doa10∆,1.65 ± 0.043
same,protein stability index,pdr5∆,1.44 ± 0.041
same,protein stability index,san1∆,1.28 ± 0.08
same,protein stability index,ubr1∆,1.36 ± 0.035
KKIVDSKKLNLKIHQSH [YMR129W/POM152],protein stability index,doa10∆,2.85 ± 0.067
same,protein stability index,pdr5∆,2.7 ± 0.056
same,protein stability index,san1∆,2.44 ± 0.17
same,protein stability index,ubr1∆,2.69 ± 0.062
KKKKKGSNQKPKYEPPV [RPT2],protein stability index,doa10∆,2.94 ± 0.11
same,protein stability index,pdr5∆,2.96 ± 0.12
same,protein stability index,san1∆,2.38 ± 0.22
same,protein stability index,ubr1∆,3.12 ± 0.076
KKKQQGAKQTQGGAMNK [SRP72],protein stability index,doa10∆,2.07 ± 0.12
same,protein stability index,pdr5∆,2.54 ± 0.1
same,protein stability index,san1∆,3.37 ± 0.082
same,protein stability index,ubr1∆,3.58 ± 0.062
KKKRSRTSATREDTPLS [ISW2],protein stability index,doa10∆,3.51 ± 0.16
same,protein stability index,pdr5∆,3.37 ± 0.083
same,protein stability index,san1∆,3.45 ± 0.058
same,protein stability index,ubr1∆,3.22 ± 0.13
KKKTTLEDFENFKGLAK [YIL149C/MLP2],protein stability index,doa10∆,2.82 ± 0.031
same,protein stability index,pdr5∆,2.99 ± 0.03
same,protein stability index,san1∆,2.957 ± 0.024
same,protein stability index,ubr1∆,2.909 ± 0.026
KKLKPIVAKYDPPIIIF [PRP28],protein stability index,doa10∆,2.94 ± 0.069
same,protein stability index,pdr5∆,2.59 ± 0.075
same,protein stability index,san1∆,2.73 ± 0.086
same,protein stability index,ubr1∆,2.37 ± 0.052
KKLLINKDASLALQRGA [DPB4],protein stability index,doa10∆,2.62 ± 0.094
same,protein stability index,pdr5∆,2.75 ± 0.12
same,protein stability index,san1∆,2.44 ± 0.17
same,protein stability index,ubr1∆,3.06 ± 0.092
KKMDDYIHRIGRTGRAA [PRP28],protein stability index,doa10∆,3.17 ± 0.1
same,protein stability index,pdr5∆,3.28 ± 0.092
same,protein stability index,san1∆,3.27 ± 0.045
same,protein stability index,ubr1∆,3.35 ± 0.07
KKNPNWLEEYHPKLIKN [FAS1],protein stability index,doa10∆,2.05 ± 0.087
same,protein stability index,pdr5∆,1.94 ± 0.061
same,protein stability index,san1∆,1.97 ± 0.084
same,protein stability index,ubr1∆,2.14 ± 0.046
KKQKLIEEQDKKVQALQ [ITC1],protein stability index,doa10∆,3.06 ± 0.094
same,protein stability index,pdr5∆,2.6 ± 0.079
same,protein stability index,san1∆,2.61 ± 0.087
same,protein stability index,ubr1∆,2.82 ± 0.068
KKSEEKLREKVNDVELA [MTW1],protein stability index,doa10∆,3.08 ± 0.13
same,protein stability index,pdr5∆,3.03 ± 0.13
same,protein stability index,san1∆,3.05 ± 0.14
same,protein stability index,ubr1∆,3.06 ± 0.21
KKSKKKWSKKSMKDRAQ [RPS25A],protein stability index,doa10∆,3.46 ± 0.069
same,protein stability index,pdr5∆,3.37 ± 0.1
same,protein stability index,san1∆,3.36 ± 0.087
same,protein stability index,ubr1∆,3.6 ± 0.051
KKSQCKKKTTLEDFENF [YIL149C/MLP2],protein stability index,doa10∆,2.87 ± 0.053
same,protein stability index,pdr5∆,3.04 ± 0.051
same,protein stability index,san1∆,3.08 ± 0.04
same,protein stability index,ubr1∆,3.14 ± 0.048
KKSVLKQVQDFEENDHP [COR1],protein stability index,doa10∆,2.85 ± 0.084
same,protein stability index,pdr5∆,2.81 ± 0.15
same,protein stability index,san1∆,2.81 ± 0.098
same,protein stability index,ubr1∆,2.66 ± 0.067
KKWKKYWQYKAGIPIGL [SWP82],protein stability index,doa10∆,1.94 ± 0.067
same,protein stability index,pdr5∆,2.25 ± 0.081
same,protein stability index,san1∆,2.61 ± 0.11
same,protein stability index,ubr1∆,2.01 ± 0.04
KKWNDLKNKNFKCQEKD [SIR2],protein stability index,doa10∆,3.46 ± 0.23
same,protein stability index,pdr5∆,3.34 ± 0.14
same,protein stability index,san1∆,3.37 ± 0.072
same,protein stability index,ubr1∆,3.11 ± 0.12
KLHVNWNLNATKPNVLN [SIN4],protein stability index,doa10∆,2.94 ± 0.17
same,protein stability index,pdr5∆,2.86 ± 0.11
same,protein stability index,san1∆,2.85 ± 0.11
same,protein stability index,ubr1∆,2.93 ± 0.098
KLKEMQKVLNAHRQRAM [SMC4],protein stability index,doa10∆,1.84 ± 0.099
same,protein stability index,pdr5∆,2.14 ± 0.12
same,protein stability index,san1∆,1.9 ± 0.12
same,protein stability index,ubr1∆,1.57 ± 0.055
KLKQGQKLFVQVSNFAP [GAL11],protein stability index,doa10∆,2.74 ± 0.063
same,protein stability index,pdr5∆,2.81 ± 0.057
same,protein stability index,san1∆,3.01 ± 0.051
same,protein stability index,ubr1∆,2.84 ± 0.05
KLLDDNPTEFDWPTYVD [SRB8],protein stability index,doa10∆,3.11 ± 0.072
same,protein stability index,pdr5∆,3.29 ± 0.061
same,protein stability index,san1∆,3.01 ± 0.042
same,protein stability index,ubr1∆,2.99 ± 0.058
KLLFQELLSMNIAPRLR [RET1],protein stability index,doa10∆,1.35 ± 0.052
same,protein stability index,pdr5∆,1.31 ± 0.049
same,protein stability index,san1∆,1.35 ± 0.089
same,protein stability index,ubr1∆,1.24 ± 0.042
KLLGIGDIESLFEQLQT [SRP54],protein stability index,doa10∆,1.58 ± 0.062
same,protein stability index,pdr5∆,2.15 ± 0.069
same,protein stability index,san1∆,2.2 ± 0.13
same,protein stability index,ubr1∆,2.67 ± 0.064
